{"source": "patent JP2014150761A", "about": "(dated 2014)", "binders": {"B1": {"name": "Tanezumab (antibody, V domains shown)", "VH": "QVQLQESGPGLVKPSETLSLTCTVSGFSLIGYDLNWIRQPPGKGLEWIGIIWGDGTTDYNSAVKSRVTISKDTSKNQFSLKLSSVTAADTAVYYCARGGYWYATSYYFDYWGQGTLVTVSS", "VL": "DIQMTQSPSSLSASVGDRVTITCRASQSISNNLNWYQQKPGKAPKLLIYYTSRFHSGVPSRFSGSGSGTDFTFTISSLQPEDIATYYCQQEHTLPYTFGQGTKLEIKR"}, "B2": {"name": "PEGylated 1-15(N52D)-Fab' (Fab, V domains shown)", "VH": "QVQLQQWGAGLLKPSETLSLTCAVYGGSFSGYYWSWVRQPPGKGLEWIGEIDHSGSTNNNPSLKSRVTISVGTSKNQFSLKLSSVTAADTAVYYCSRDGGPESGMGAFDIWGQGTMVTVSS", "VL": "not shown", "modifications": "40 kDa PEG (SUNBRIGHT GL2-400MA, maleimide) on the C-terminal Cys (EU C226; Cys 230 of SEQ ID NO 10)"}, "B3": {"name": "1-15(N52D-A)-Fab'-5kPEG (Fab, V domains shown)", "VH": "B2 VH", "VL": "not shown", "modifications": "5 kDa PEG (SUNBRIGHT GL2-50MA) bound by the procedure of Example 13 (hinge Cys)"}, "B4": {"name": "1-15(N52D-A)-Fab'-10kPEG (Fab, V domains shown)", "VH": "B2 VH", "VL": "not shown", "modifications": "10 kDa PEG (SUNBRIGHT GL2-100MA) bound by the procedure of Example 13 (hinge Cys)"}, "B5": {"name": "Fab fragment of the 1-15 antibody (papain digest) (Fab, V domains shown)", "VH": "B2 VH with D52N", "VL": "not shown", "notes": "also called 1-15 Fab; 1価の抗体フラグメント"}, "B6": {"name": "1-15 antibody (chimeric antibody) (antibody, V domains shown)", "VH": "B2 VH with D52N", "VL": "not shown", "notes": "also called 1−15と命名した抗体(キメラ抗体)"}}, "key": {"[1]": {"target": "T1, human beta-NGF (R&D Systems) (human, UniProt P01138 122-241)", "assay": "cell-based or functional assay"}, "[2]": {"target": "T2, mouse beta-NGF (R&D Systems) (mouse, UniProt P01139 122-241)", "assay": "cell-based or functional assay"}, "[3]": {"target": "T1, human beta-NGF (R&D Systems)", "assay": "competition ELISA: inhibition of biotin-human βNGF binding to immobilised human trkA (Example 3)"}, "[4]": {"target": "T1, human beta-NGF (R&D Systems)", "assay": "isothermal titration calorimetry in PBS: 44 μM human βNGF titrated into 1.5 μM Tanezumab, single site binding model"}, "[5]": {"target": "T1, human beta-NGF (R&D Systems)", "assay": "papain Fab tested by Examples 3, 6 and 7"}, "[6]": {"target": "T1, human beta-NGF (R&D Systems)", "assay": "screening by Examples 3 to 8 (NGF-trkA binding inhibition ELISA, cell assays)"}, "[7]": {"target": "T2, mouse beta-NGF (R&D Systems)", "assay": "competition ELISA with biotin-mouse βNGF on immobilised trkA (Example 4)"}}, "note": "Residue numbers refer to the chain shown, from its start. Names may count otherwise.", "data": [{"binder": "B1", "values": [{"measurement": "IC50, neutralizing activity by the method of Example 6 (Ca2+ rise, HEK293 cells expressing human trkA)", "setting": "[1]", "value": 0.17, "unit": "µg/mL"}, {"measurement": "IC50, neutralizing activity by the method of Example 6 (Ca2+ rise, HEK293 cells expressing human trkA)", "setting": "[2]", "value": 0.23, "unit": "µg/mL"}, {"measurement": "IC50", "setting": "[3]", "value": 0.41, "unit": "µg/mL"}, {"measurement": "Kd", "setting": "[4]", "value": 20.4, "unit": "nM"}]}, {"binder": "B2", "values": [{"measurement": "IC50, neutralizing activity by the method of Example 6 (Ca2+ rise, HEK293 cells expressing human trkA)", "setting": "[2]", "value": 0.069, "unit": "µg/mL"}, {"measurement": "fold stronger neutralizing activity than Tanezumab (method of Example 6)", "setting": "[2]", "value": "~3.3", "unit": "fold"}]}, {"binder": "B3", "values": [{"measurement": "IC50, neutralizing activity by the method of Example 6 (final NGF concentration 50 ng/ml)", "setting": "[1]", "value": 0.03, "unit": "µg/mL"}]}, {"binder": "B4", "values": [{"measurement": "IC50, neutralizing activity by the method of Example 6 (final NGF concentration 50 ng/ml)", "setting": "[1]", "value": 0.028, "unit": "µg/mL"}]}, {"binder": "B5", "values": [{"measurement": "binding result", "setting": "[5]", "value": "binds"}]}, {"binder": "B6", "values": [{"measurement": "binding result", "setting": "[6]", "value": "binds"}, {"measurement": "binding result", "setting": "[7]", "value": "binds"}]}]}
